According to patent US20210253718A1 (MODMAB THERAPEUTICS, published 2021):

T1: FZD3 cysteine-rich domain (CRD), MYC-tagged and GPI-anchored on CHO cells (human, UniProt Q9NPG1 24-150, GPI anchor)
T1 construct: domain: cysteine-rich domain (CRD); also called FZD3 CRD; CHO-myc-FZDGPI; not shown: MYC tag and GPI anchor signal
T1 sequence (looked up): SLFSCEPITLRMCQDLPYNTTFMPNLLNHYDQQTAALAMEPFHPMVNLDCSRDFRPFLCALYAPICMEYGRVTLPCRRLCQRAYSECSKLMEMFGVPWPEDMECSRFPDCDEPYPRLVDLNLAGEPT

T2: FZD6 cysteine-rich domain (CRD), MYC-tagged and GPI-anchored on CHO cells (human, UniProt O60353 20-146, GPI anchor)
T2 construct: also called FZD6 CRD; CHO-myc-FZDGPI; not shown: MYC tag and GPI anchor signal
T2 sequence: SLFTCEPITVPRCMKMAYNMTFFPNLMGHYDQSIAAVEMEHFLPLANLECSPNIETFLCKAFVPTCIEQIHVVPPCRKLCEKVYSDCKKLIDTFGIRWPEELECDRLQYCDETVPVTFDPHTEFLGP

T3: FZD9 cysteine-rich domain (CRD), MYC-tagged and GPI-anchored on CHO cells (human, UniProt O00144 35-161, GPI anchor)
T3 construct: also called FZD9 CRD; CHO-myc-FZDGPI; not shown: MYC tag and GPI anchor signal
T3 sequence: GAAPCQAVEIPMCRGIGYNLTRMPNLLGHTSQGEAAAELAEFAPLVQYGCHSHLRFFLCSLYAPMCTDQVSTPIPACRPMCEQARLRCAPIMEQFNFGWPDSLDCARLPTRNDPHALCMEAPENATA

T4: FZD10 cysteine-rich domain (CRD), MYC-tagged and GPI-anchored on CHO cells (human, UniProt Q9ULW2 30-156, GPI anchor)
T4 construct: also called FZD10 CRD; CHO-myc-FZDGPI; not shown: MYC tag and GPI anchor signal
T4 sequence: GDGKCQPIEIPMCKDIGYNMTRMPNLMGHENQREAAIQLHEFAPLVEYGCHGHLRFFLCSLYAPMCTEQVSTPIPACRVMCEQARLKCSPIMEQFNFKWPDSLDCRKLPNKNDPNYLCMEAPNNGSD

T5: FZD4 cysteine-rich domain (CRD), MYC-tagged and GPI-anchored on CHO cells (human, UniProt Q9ULV1 42-167, GPI anchor)
T5 construct: also called FZD4 CRD; CHO-myc-FZDGPI; not shown: MYC tag and GPI anchor signal
T5 sequence: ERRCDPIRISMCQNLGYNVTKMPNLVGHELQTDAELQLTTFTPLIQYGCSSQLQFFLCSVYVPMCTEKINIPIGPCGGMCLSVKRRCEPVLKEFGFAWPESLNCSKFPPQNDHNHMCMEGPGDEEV

T6: FZD5 cysteine-rich domain (CRD), MYC-tagged and GPI-anchored on CHO cells (human, UniProt Q13467 29-156, GPI anchor)
T6 construct: also called FZD5 CRD; CHO-myc-FZDGPI; not shown: MYC tag and GPI anchor signal
T6 sequence: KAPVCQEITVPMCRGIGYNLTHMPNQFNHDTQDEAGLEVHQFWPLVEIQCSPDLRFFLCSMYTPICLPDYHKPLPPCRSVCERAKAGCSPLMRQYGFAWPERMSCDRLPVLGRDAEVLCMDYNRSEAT

T7: FZD8 cysteine-rich domain (CRD), MYC-tagged and GPI-anchored on CHO cells (human, UniProt Q498S8 31-155 (rat entry), GPI anchor)
T7 construct: also called FZD8 CRD; CHO-myc-FZDGPI; not shown: MYC tag and GPI anchor signal
T7 sequence: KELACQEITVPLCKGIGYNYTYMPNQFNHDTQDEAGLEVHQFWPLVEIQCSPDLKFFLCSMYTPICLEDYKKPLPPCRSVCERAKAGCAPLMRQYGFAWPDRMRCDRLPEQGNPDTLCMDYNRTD


Assays:
[1] = molecular target: T1, FZD3 cysteine-rich domain (CRD), …; test: immunofluorescence, CHO-CRD cells
[2] = molecular target: T2, FZD6 cysteine-rich domain (CRD), …; test: immunofluorescence, CHO-CRD cells
[3] = molecular target: T3, FZD9 cysteine-rich domain (CRD), …; test: immunofluorescence, CHO-CRD cells
[4] = molecular target: T8, FZD2 cysteine-rich domain (CRD), MYC-tagged and GPI-anchored on CHO cells (human, UniProt Q14332 35-161); test: immunofluorescence, CHO-CRD cells
[5] = molecular target: T4, FZD10 cysteine-rich domain (CRD), …; test: immunofluorescence, CHO-CRD cells
[6] = molecular target: T5, FZD4 cysteine-rich domain (CRD), …; test: immunofluorescence, CHO-CRD cells
[7] = molecular target: FZD7 cysteine-rich domain (CRD), MYC-tagged and GPI-anchored on CHO cells (human, UniProt O75084 45-169); test: flow cytometry, CHO-CRD cells;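 further: flow cytometry of Fab binding to CHO cells overexpressing a Frizzled CRD, with binding defined as median fluorescence over twice that of CHO cells lacking any Frizzled CRD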
Description: (§1) Binding was measured via flow cytometry analysis of CHO cells overexpressing CRD of FZD1, FZD2, FZD3, FZD4, FZD5, FZD6, FZD7, FZD8, FZD9 or FZD10. Median fluorescence values are shown.

[8] = molecular target: T6, FZD5 cysteine-rich domain (CRD), …; test: flow cytometry, CHO-CRD cells;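 further: flow cytometry of Fab binding to CHO cells overexpressing a Frizzled CRD, with binding defined as median fluorescence over twice that of CHO cells lacking any Frizzled CRD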
Description: as §1

[9] = molecular target: T1, FZD3 cysteine-rich domain (CRD), …; test: flow cytometry, CHO-CRD cells;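 further: flow cytometry of Fab binding to CHO cells overexpressing a Frizzled CRD, with binding defined as median fluorescence over twice that of CHO cells lacking any Frizzled CRD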
Description: as §1

[10] = molecular target: T2, FZD6 cysteine-rich domain (CRD), …; test: flow cytometry, CHO-CRD cells;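 further: flow cytometry of Fab binding to CHO cells overexpressing a Frizzled CRD, with binding defined as median fluorescence over twice that of CHO cells lacking any Frizzled CRD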
Description: as §1

[11] = molecular target: T3, FZD9 cysteine-rich domain (CRD), …; test: flow cytometry, CHO-CRD cells
Description: as §1

[12] = molecular target: T8, FZD2 cysteine-rich domain (CRD), …; test: flow cytometry, CHO-CRD cells
Description: as §1

[13] = molecular target: T4, FZD10 cysteine-rich domain (CRD), …; test: flow cytometry, CHO-CRD cells
Description: as §1

[14] = molecular target: T7, FZD8 cysteine-rich domain (CRD), …; test: flow cytometry, CHO-CRD cells
Description: as §1

[15] = molecular target: T5, FZD4 cysteine-rich domain (CRD), …; test: flow cytometry, CHO-CRD cells
Description: as §1

[16] = molecular target: T9, FZD1 cysteine-rich domain (CRD), MYC-tagged and GPI-anchored on CHO cells (human); test: immunofluorescence, CHO-CRD cells
[17] = molecular target: T9, FZD1 cysteine-rich domain (CRD), …; test: flow cytometry, CHO-CRD cells
Description: as §1

| Binder | binding result [1] | binding result [2] | binding result [3] | binding result [4] | binding result [5] | binding result [6] | median fluorescence [7] | median fluorescence [8] | median fluorescence [9] | median fluorescence [10] | median fluorescence [11] | median fluorescence [12] | median fluorescence [13] | median fluorescence [14] | median fluorescence [15] | binding result [16] | median fluorescence [17] |
| --- | --- | --- | --- | --- | --- | --- | --- | --- | --- | --- | --- | --- | --- | --- | --- | --- | --- |
| Fab-2929 (Fab, V domains shown, Fab; also called Fv-2929) VH: EVQLVESGGGLVQPGGSLRLSCAASGFNISYYYIHWVRQAPGKGLEWVASIYPSSSSTSYADSVKGRFTISADTSKNTAYLQMNSLRAEDTAVYYCARGAMDYWGQGTLVTVSS VL: DIQMTQSPSSLSASVGDRVTITCRASQSVSSAVAWYQQKPGKAPKLLIYSASSLYSGVPSRFSGSRSGTDFTLTISSLQPEDFATYYCQQWYSSYGLITFGQGTKVEIK | no binding | no binding | no binding | no binding | no binding | no binding | 13 | 27.1 | 3.55 | 2.84 | 3.08 | 4.29 | 2.64 | 7.91 | 3.72 |  |  |
| Fab-2918 (Fab, V domains shown, Fab; also called Fv-2918) VH: EVQLVESGGGLVQPGGSLRLSCAASGFNLSYSSIHWVRQAPGKGLEWVASIYSSYSSTSYADSVKGRFTISADTSKNTAYLQMNSLRAEDTAVYYCARFGYWAIDYWGQGTLVTVSS VL: DIQMTQSPSSLSASVGDRVTITCRASQSVSSAVAWYQQKPGKAPKLLIYSASSLYSGVPSRFSGSRSGTDFTLTISSLQPEDFATYYCQQAFGASLFTFGQGTKVEIK | no binding | no binding | no binding | no binding | no binding | no binding | 7.5 | 29.2 | 3.55 | 2.69 | 3.11 | 4.41 | 2.81 | 7.57 | 4.07 |  |  |
| Fab-2902 (Fab, V domains shown, Fab; also called Fv-2902) VH: EVQLVESGGGLVQPGGSLRLSCAASGFNISYYYIHWVRQAPGKGLEWVASISSSSSSTSYADSVKGRFTISADTSKNTAYLQMNSLRAEDTAVYYCARGALDYWGQGTLVTVSS VL: DIQMTQSPSSLSASVGDRVTITCRASQSVSSAVAWYQQKPGKAPKLLIYSASSLYSGVPSRFSGSRSGTDFTLTISSLQPEDFATYYCQQWYAFGALITFGQGTKVEIK | no binding | no binding | no binding | no binding | no binding |  | 16 | 36.9 | 6.44 | 4 | 3.96 | 8.98 | 4.1 | 13.9 |  | no binding | 6.1 |

Further lines, results first:

| binding result [1] | binding result [2] | binding result [3] | binding result [4] | binding result [5] | binding result [6] | median fluorescence [7] | median fluorescence [8] | median fluorescence [9] | median fluorescence [10] | median fluorescence [11] | median fluorescence [12] | median fluorescence [13] | median fluorescence [14] | median fluorescence [15] | binding result [16] | median fluorescence [17] | Binder |
| --- | --- | --- | --- | --- | --- | --- | --- | --- | --- | --- | --- | --- | --- | --- | --- | --- | --- |
| no binding | no binding | no binding | no binding | no binding | no binding | 10.2 | 30.5 | 3.28 | 2.79 | 2.74 | 4.47 | 2.81 | 7.91 | 5 |  |  | Fab-2910 (Fab, V domains shown, Fab) VH: EVQLVESGGGLVQPGGSLRLSCAASGFNISYSYMHWVRQAPGKGLEWVASIYSSSSSTSYADSVKGRFTISADTSKNTAYLQMNSLRAEDTAVYYCARGAMDYWGQGTLVTVSS VL: DIQMTQSPSSLSASVGDRVTITCRASQSVSSAVAWYQQKPGKAPKLLIYSASSLYSGVPSRFSGSRSGTDFTLTISSLQPEDFATYYCQQWYGSHLITFGQGTKVEIK |
| no binding | no binding | no binding | no binding |  |  | 2.92 | 30.2 | 4.03 | 3.55 | 5.05 | 5.09 | 19.8 | 10.1 |  | no binding | 5.23 | Fab-2906 (Fab, V domains shown, Fab; also called Fv-2906) VH: EVQLVESGGGLVQPGGSLRLSCAASGFNFSSSSIHWVRQAPGKGLEWVAYISSSYGYTYYADSVKGRFTISADTSKNTAYLQMNSLRAEDTAVYYCARTVRGSKKPYFSGWAMDYWGQGTLVTVSS VL: DIQMTQSPSSLSASVGDRVTITCRASQSVSSAVAWYQQKPGKAPKLLIYSASSLYSGVPSRFSGSRSGTDFTLTISSLQPEDFATYYCQQWSWGFLITFGQGTKVEIK |
| no binding | no binding | no binding | no binding | no binding | no binding | 4.57 | 31.3 | 3.43 | 2.89 | 2.57 | 5.38 | 2.71 |  | 4.1 | no binding | 4.61 | Fab-2909 (Fab, V domains shown, Fab; also called Fv-2909) VH: EVQLVESGGGLVQPGGSLRLSCAASGFNISSSYMHWVRQAPGKGLEWVASISSSSGYTSYADSVKGRFTISADTSKNTAYLQMNSLRAEDTAVYYCARTVRGSKKPYFSGWAMDYWGQGTLVTVSS VL: DIQMTQSPSSLSASVGDRVTITCRASQSVSSAVAWYQQKPGKAPKLLIYSASSLYSGVPSRFSGSRSGTDFTLTISSLQPEDFATYYCQQSWSYHYLITFGQGTKVEIK |
